These results are taken from PMC6765224, “Stereospecificity control in aminoacyl-tRNA-synthetases: new evidence of D-amino acids activation and editing” (Nucleic Acids Research, 2019).

Holding throughout (assay): purified protein
Substrate in data set [1]: NCC(=O)O
Format: biochemical, Thermus thermophilus. The settings on record: amino acid activation, 4 mM ATP, 1 mM PPi, 10 mM MgCl2, pH 7.5, 60 °C.

Substrate in data set [2]: N[C@@H](CO)C(=O)O
The settings on record: amino acid activation.

Substrate in data set [3]: C[C@@H](N)C(=O)O
The settings on record: amino acid activation, pH 7.5.

Substrate in data set [4]: C[C@H](N)C(=O)O
The settings on record: amino acid activation, pH 7.5.

Substrate in data set [5]: N[C@H](Cc1ccc(O)cc1)C(=O)O
It counts as biochemical, Thermus thermophilus. The settings on record: amino acid activation, 4 mM ATP, 1 mM PPi, 10 mM MgCl2, pH 7.5, 60 °C.

Substrate in data set [6]: N[C@@H](Cc1ccc(O)cc1)C(=O)O
It counts as biochemical, Thermus thermophilus. The settings on record: amino acid activation, 4 mM ATP, 1 mM PPi, 10 mM MgCl2, pH 7.5, 60 °C.

Where [7] appears, read: 4 mM ATP, 1 mM PPi, 10 mM MgCl2, pH 7.5, 60 °C, pH 7.5, 60.0 °C.
[8] abbreviates: 4 mM ATP, 1 mM PPi, 10 mM MgCl2, pH 7.5, 60 °C, 60.0 °C.
[9] abbreviates: editing-deficient mutant, 37.0 °C.

In general, Km refers to the concentration of substrate that gives half-maximal velocity. In general, kcat refers to the maximal rate divided by the concentration of active sites. As usually defined, the kcat/Km is the turnover number divided by the Michaelis constant.

B1: AlaRSTT (Thermus thermophilus alanyl-tRNA-synthetase) (Thermus thermophilus HB27) (protein)
chain: MRTAEIREKFLSFFEGKGHLRLPSFSLIPEDDPSLLFTSAGMAPLKPYFLGAKPIFGGREWRRVTTCQECLRVGDIENVGRTSRHNTYFEMLGNFSFGDYFKKEAILWAWEFLTEHLRLDPGRLWVTVFEDDDEAYEIWRDLVGVPEERIGRFGEDENYWPGGAITHGPNGPSGPCSEIFYDRGPAYGTPDETGPNTGSGDRFVEIWNLVFTQYDRQGPIPGPGILKPLPQKNIDTGMGLYRVAAILQDVEDFYRTDTFFPIIQEVARMSGRPYEGKTSVSHRVIADHVRAVVAALSDGATFSNTGRGYVIRRLLRRALRHGYLLGLSDPFLHRLAPLVAELLGDFYPEMRENLPAVEKQIRLEEERFLETLEGGLKRLDALLSGLKPGEVLPGKEAFRLYDTYGFPLDLTVEIAAERGYGVDTEGFQKAMEEQQSRSRAAMAFEREIFKKGAQVLEELYAERGATEFLGYNALEAEAEVLALLAGDQSLLEAGPGTEVQVVLDKTPFYAEGGGQIGDFGLLEWPGGRARVETTRKTERGIFLHKARVEEGVLRVGERVRAVVDPRRRDTERNHTATHLLHAALRAVLGPHVRQAGSLVAPDRLRFDFTHPEPLKPEELERVELLVNRWIMADFPVTWRYMPLEEARKEGAMALFGEKYGEVVRVVRVEGSPLEGLESKELCGGCHVRRTGEIGAFLIRSEEAVSAGVRRIEAVTGEEAIRFARGSLNRLKALAERLEVGEAALEERLEKLLAELKEKEREVESLKARLVQAALGGGGGASLEEKGGLRWTVAELPGLDAKALRQAADDLVARGADVALVLSGGQAVLKLSPKAQGMGLEAGALFRALAEKAGGRGGGKGALAQGGGLDPRKAREALPGLLP
notes: His-tagged, pET28b, expressed in E. coli BL21(DE3)Star; wild type
For the protein B1, the Km was 22000 ± 8000 µM in the data set “purified protein [1]”, 10000 ± 2000 µM in “purified protein [2]” (setting [7]), 2190 ± 500 µM in the data set “purified protein [3]” (setting [8]) and 139 ± 12 µM in “purified protein [4]” (setting [8]). Further, the kcat in the data set “purified protein [1]” came out at 6.5 ± 1.6 s⁻¹; in “purified protein [2]” (setting [7]) it was 2.3 s⁻¹; in the data set “purified protein [3]” (setting [8]) it was 0.21 s⁻¹; in the data set “purified protein [4]” (setting [8]), 7.88 s⁻¹. Also, the kcat/Km in “purified protein [1]” came to 290 M⁻¹ s⁻¹; in the data set “purified protein [2]” (setting [7]), 236 M⁻¹ s⁻¹; in the data set “purified protein [3]” (setting [8]) it was 120 M⁻¹ s⁻¹; in the data set “purified protein [4]” (setting [8]) it was 56000 M⁻¹ s⁻¹.

B2: E. coli C666A AlaRS (Escherichia coli K-12; C666A) (protein)
chain: SKSTAEIRQAFLDFFHSKGHQVVASSSLVPHNDPTLLFTNAGMNQFKDVFLGLDKRNYSRATTSQRCVRAGGKHNDLENVGYTARHHTFFEMLGNFSFGDYFKHDAIQFAWELLTSEKWFALPKERLWVTVYESDDEAYEIWEKEVGIPRERIIRIGDNKGAPYASDNFWQMGDTGPCGPCTEIFYDHGDHIWGGPPGSPEEDGDRYIEIWNIVFMQFNRQADGTMEPLPKPSVDTGMGLERIAAVLQHVNSNYDIDLFRTLIQAVAKVTGATDLSNKSLRVIADHIRSCAFLIADGVMPSNENRGYVLRRIIRRAVRHGNMLGAKETFFYKLVGPLIDVMGSAGEDLKRQQAQVEQVLKTEEEQFARTLERGLALLDEELAKLSGDTLDGETAFRLYDTYGFPVDLTADVCRERNIKVDEAGFEAAMEEQRRRAREASGFGADYNAMIRVDSASEFKGYDHLELNGKVTALFVDGKAVDAINAGQEAVVVLDQTPFYAESGGQVGDKGELKGANFSFAVEDTQKYGQAIGHIGKLAAGSLKVGDAVQADVDEARRARIRLNHSATHLMHAALRQVLGTHVSQKGSLVNDKVLRFDFSHNEAMKPEEIRAVEDLVNTQIRRNLPIETNIMDLEAAKAKGAMALFGEKYDERVRVLSMGDFSTELAGGTHASRTGDIGLFRIISESGTAAGVRRIEAVTGEGAIATVHADSDRLSEVAHLLKGDSNNLADKVRSVLERTRQLEKELQQLKEQAAAQESANLSSKAIDVNGVKLLVSELSGVEPKMLRTMVDDLKNQLGSTIIVLATVVEGKVSLIAGVSKDVTDRVKAGELIGMVAQQVGGKGGGRPDMAQAGGTDAAALPAALASVKGWVSAKLQ
On to B2, for which, in the data set “purified protein [2]” (editing-deficient mutant), the Km turned out to be 27000 ± 6000 µM and the kcat was found to be 0.147 ± 0.04 s⁻¹. Besides, in “purified protein [3]” (setting [9]), the Km came to 60000 ± 20000 µM, the kcat turned out to be 0.1 s⁻¹ and the kcat/Km worked out at 1.8 M⁻¹ s⁻¹. Besides, in “purified protein [4]” (setting [9]), the Km was 304 ± 43 µM, the kcat was 0.18 s⁻¹ and the specificity constant (kcat/Km) came to 600 M⁻¹ s⁻¹.

B3: TyrRSTT (T. thermophilus tyrosyl-tRNA-synthetase) (Thermus thermophilus HB27) (protein)
chain: MAGTGHTPEEALALLKRGAEEIVPEEELLAKLKEGRPLTVKLGADPTRPDLHLGHAVVLRKMRQFQELGHKVVLIIGDFTGMIGDPSGRSKTRPPLTLEETRENAKTYVAQAGKILRQEPHLFELRYNSEWLEGLTFKEVVRLTSLMTVAQMLEREDFKKRYEAGIPISLHELLYPFAQAYDSVAIRADVEMGGTDQRFNLLVGREVQRAYGQSPQVCFLMPLLVGLDGREKMSKSLDNYIGLTEPPEAMFKKLMRVPDPLLPSYFRLLTDLEEEEIEALLKAGPVPAHRVLARLLTAAYALPQIPPRIDRAFYESLGYAWEAFGRDKEAGPEEVRRAEARYDEVAKGGIPEEIPEVTIPASELKEGRIWVARLFTLAGLTPSNAEARRLIQNRGLRLDGEVLTDPMLQVDLSRPRILQRGKDRFVRVRLSD
notes: wild type
B3: in the data set “purified protein [5]”, the Km was determined as 27.6 ± 7.5 µM, the turnover number (kcat) was determined as 2.2 ± 0.65 s⁻¹ and the kcat/Km was determined as 80000 M⁻¹ s⁻¹. In addition, in the data set “purified protein [6]”, the Km turned out to be 9 ± 2 µM, the kcat worked out at 17.4 ± 3.9 s⁻¹ and the kcat/Km came out at 1.93e+06 M⁻¹ s⁻¹.
